Source: patent publication US20250043302A1, “MUTATED HYDROXYPHENYLPYRUVATE DIOXYGENASE POLYPEPTIDE, AND CODING GENE AND USE THEREOF” (BEIJING DABEINONG BIOTECHNOLOGY CO., LTD., priority 2021, published 2025)

Columns and labels:
Type in all cases: in vivo
[1] = system: Arabidopsis thaliana T1 plants; experiment: Topramezone tolerance of transgenic Arabidopsis thaliana T1 plants (spray, bleached leaf area grade, damage score); conditions: 7 DAT, Table 4; for Classification and statistics of the grade of pesticide damage: Grade 0 / Classification and statistics of the grade of pesticide damage: Grade 1 / Classification and statistics of the grade of pesticide damage: Grade 2 / Classification and statistics of the grade of pesticide damage: Grade 3: number of plants; for Scores: pesticide damage score 0-100
Method in brief: (§1)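 Read-out: per-plant damage grade 0–3 from proportion of bleached leaf area at 7 DAT (1 <50%, 2 >50%, 3 100%). Plants were T1 transformants, glufosinate-selected, plus wild-type CK, sprayed 18 days post-sowing. Rates: topramezone 25–200, isoxaflutole 35–280, mesotrione 52.5–420 g ai/ha.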

[2] = system: Arabidopsis thaliana T1 plants; experiment: Isoxaflutole tolerance of transgenic Arabidopsis thaliana T1 plants (spray, bleached leaf area grade, damage score); set-up: Scores (pesticide damage): scale not given here; conditions: spray, Arabidopsis thaliana T1 plants; for Classification and statistics of the grade of pesticide damage: Grade 0 (number of plants) / Classification and statistics of the grade of pesticide damage: Grade 1 (number of plants) / Classification and statistics of the grade of pesticide damage: Grade 2 (number of plants) / Classification and statistics of the grade of pesticide damage: Grade 3 (number of plants): 16 plants
Method in brief: as §1

[3] = system: Arabidopsis thaliana T1 plants; experiment: Mesotrione tolerance of transgenic Arabidopsis thaliana T1 plants (spray, bleached leaf area grade, damage score); set-up: Scores: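 damage score 0-100 computed as Σ(N×S)/(T×M)×100 over grades 0-3 with higher meaning more damage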; conditions: Arabidopsis thaliana T1 plants; for Grade 0 (classification and statistics of the grade of pesticide damage; number of plants) / Grade 1 (classification and statistics of the grade of pesticide damage; number of plants) / Grade 2 (classification and statistics of the grade of pesticide damage; number of plants) / Grade 3 (classification and statistics of the grade of pesticide damage; number of plants): 16 plants
Method in brief: as §1

[4] = isoxaflutole 35 g ai/ha (0.5x field concentration)
[5] = isoxaflutole 70 g ai/ha (1x field concentration)

B1: GsHPPDm-F383W-02: nucleotide sequence encoding Gossypium hirsutum HPPD with F383W; vector DBN11740 (nucleic acid)
DNA: ATGGTTCAAACAAATCAATCTGGTTCTGGGAATGATTTCAAGCTGGTTGGTTTCTCAAATTTTGTGCGTAGCAATCCCAAATCAGACCGCTTCACGGTCAAGAGATTCCACCACATTGAATTTTGGTGCACTGATGCCACTAATGTGGCGAGGAGGTTTTCATGGGGTTTAGGGATGCAGTTCGTCGCCAAGAGTGACCTCTCCACAGGAAATTTGACGCATGCAAGCTACCTGCTGCGGAGCCGCGACTTGAATTTCCTGTTTACAGCACCATATTCACCCAGTATTGCAGTTGCTCAAAACCTTTCGCCACAAAGCACTGCTTCCATACCTTCATTTGATCACTCGCTTTGTCGGTCCTTTGCTGCAACACATGGACTTGGCGTCAGAGCAATTGCCATCGAGGTGGACGACGCCGAAACTGCCTTCACCACGAGCGTGACACATGGCGCGCTCCCTTTTTGTCCACCAACACCACTAGGAGATGTGGCTACAATTGCTGAAGTTAAATTATATGGTGATGTTGTGCTCAGATATGTTTCTTACACCACAACCATCAACTCCGACCATGATTTTCTGCCTGGTTTTGAGAAGATTGAAGATACTCTATCGTATCCTTTGGATTATGGCCTGCGTCGGCTCGATCATGCTGTTGGCAACGTACCTGAATTAGGTCCTGCTGTATCTTATGTGAAATCTTTTACTGGGTTCCATGAGTTTGCAGAGTTCACCGCTGAGGATGTAGGAACAAGTGAATCTGGGCTGAACTCAGTTGTTTTGGCCAACAATGAGGAAATGGTCCTCTTACCAATGAACGAGCCGGTGTTCGGCACTAAGCGCAAATCTCAAATACAGACCTACTTGGAGCACAATGAAGGAGCTGGTGTGCAGCACCTCGCCCTCGTCTCGGAGGACATCTTCAAAACTTTAAGGGAGATGAGGAAACGATCCTTTGTGGGAGGATTTGAATTCATGCCTTCTCCGCCGCCGACATACTACAAGAAGCTCAAGCAGCGCGCGGGGGACATTTTGTCTGATGAGCAGATCAAGGAGTGTGAAGAGCTTGGGATTCTTGTTGATAGAGATGATCAAGGAACGCTTCTGCAGATATTTACCAAGCCCGTCGGCGACCGGCCTACTATATGGATTGAGATCATCCAGAGAATTGGTTGCATGGTGAAGGATGAAGAAGGGAAACAGTACCAGAAGGGCGGCTGCGGCGGGTTTGGAAAAGGAAACTTCAGTGAGCTGTTTAAAAGTATAGAGGAGTATGAAAAGAGCTTGGAAGCAAAACAATCACAAAATCCATGA
modifications: GsHPPDm-F383W-02 Nucleotide Sequence
notes: vector DBN11740
Classification and statistics of the grade of pesticide damage: Grade 0 ([1]; topramezone 25 g ai/ha (1×)): 0
Classification and statistics of the grade of pesticide damage: Grade 1 ([1]; topramezone 25 g ai/ha (1×)): 3
Classification and statistics of the grade of pesticide damage: Grade 2 ([1]; topramezone 25 g ai/ha (1×)): 9
Classification and statistics of the grade of pesticide damage: Grade 3 ([1]; topramezone 25 g ai/ha (1×)): 4
Classification and statistics of the grade of pesticide damage: Grade 0 ([1]; topramezone 100 g ai/ha (4×)): 0
Classification and statistics of the grade of pesticide damage: Grade 1 ([1]; topramezone 100 g ai/ha (4×)): 0
Classification and statistics of the grade of pesticide damage: Grade 2 ([1]; topramezone 100 g ai/ha (4×)): 0
Classification and statistics of the grade of pesticide damage: Grade 3 ([1]; topramezone 100 g ai/ha (4×)): 16
Scores ([1]; topramezone 25 g ai/ha (1×)): 69
Scores ([1]; topramezone 100 g ai/ha (4×)): 100
Resistance evaluation ([1]; topramezone 25 g ai/ha (1×)): non-resistant (non-resistant plants (scores 68-100))
Resistance evaluation ([1]; topramezone 100 g ai/ha (4×)): non-resistant (non-resistant plants (scores 68-100))
Resistance evaluation [2, 4]: Non-resistant
Scores (pesticide damage) [2, 4]: 73
Classification and statistics of the grade of pesticide damage: Grade 0 (number of plants) [2, 4]: 0
Classification and statistics of the grade of pesticide damage: Grade 1 (number of plants) [2, 4]: 2
Classification and statistics of the grade of pesticide damage: Grade 2 (number of plants) [2, 4]: 9
Classification and statistics of the grade of pesticide damage: Grade 3 (number of plants) [2, 4]: 5
Resistance evaluation [2, 5]: Non-resistant
Scores (pesticide damage) [2, 5]: 100
Classification and statistics of the grade of pesticide damage: Grade 0 (number of plants) [2, 5]: 0
Classification and statistics of the grade of pesticide damage: Grade 1 (number of plants) [2, 5]: 0
Classification and statistics of the grade of pesticide damage: Grade 2 (number of plants) [2, 5]: 0
Classification and statistics of the grade of pesticide damage: Grade 3 (number of plants) [2, 5]: 16
Resistance evaluation ([3]; mesotrione 52.5 g ai/ha): Non-resistant
Scores ([3]; mesotrione 52.5 g ai/ha): 100
Grade 0 (classification and statistics of the grade of pesticide damage; number of plants) ([3]; mesotrione 52.5 g ai/ha): 0
Grade 1 (classification and statistics of the grade of pesticide damage; number of plants) ([3]; mesotrione 52.5 g ai/ha): 0
Grade 2 (classification and statistics of the grade of pesticide damage; number of plants) ([3]; mesotrione 52.5 g ai/ha): 0
Grade 3 (classification and statistics of the grade of pesticide damage; number of plants) ([3]; mesotrione 52.5 g ai/ha): 16
Resistance evaluation ([3]; mesotrione 105 g ai/ha): Non-resistant
Scores ([3]; mesotrione 105 g ai/ha): 100
Grade 0 (classification and statistics of the grade of pesticide damage; number of plants) ([3]; mesotrione 105 g ai/ha): 0
Grade 1 (classification and statistics of the grade of pesticide damage; number of plants) ([3]; mesotrione 105 g ai/ha): 0
Grade 2 (classification and statistics of the grade of pesticide damage; number of plants) ([3]; mesotrione 105 g ai/ha): 0
Grade 3 (classification and statistics of the grade of pesticide damage; number of plants) ([3]; mesotrione 105 g ai/ha): 16
